Patent US12091446 (NATIONAL TECHNOLOGY AND ENGINEERING SOLUTIONS OF SANDIA, dated 2024)

molecular target: T1, SARS-COV-2 spike, Wuhan (original) (SARS-COV-2, UniProt P0DTC2 14-1273); test: cell-based or functional assay

Row | Binder | EC50, neutralization of spike pseudotyped virus
1 | BP1A10 Nb-huFc (Fc fusion) EVQLQASGGGFVQPGGSLRLSCAASGQPSDRYIMGWFRQAPGKEREFVSAISQGAANKTAYADSVKGRFTISRDNSKNTVYLQMNSLRAEDTATYYCATHFNWQNYSYWGQGTQVTVSS | 8.38 nM
2 | AP1B6 Nb-huFc (Fc fusion) EVQLQASGGGFVQPGGSLRLSCAASGSAFQIYAMGWFRQAPGKEREFVSAISSTDSETDHYADSVKGRFTISRDNSKNTVYLQMNSLRAEDTATYYCAVNGFDYAHSKAGPQVYWGQGTQVTVSS | 3.32 nM
3 | AP1D4 Nb-huFc (Fc fusion) EVQLQASGGGFVQPGGSLRLSCAASGHTFDAHRMGWFRQAPGKEREFVSAISSWGQSSTYYADSVKGRFTISRDNSKNTVYLQMNSLRAEDTATYYCAQTDEGNQYVYWGQGTQVTVSS | 6.62 nM
4 | BP2A6 Nb-huFc (Fc fusion) EVQLQASGGGFVQPGGSLRLSCAASGQTFSHYIMGWFRQAPGKEREFVSAISAGQGHATYYADSVKGRFTISRDNSKNTVYLQMNSLRAEDTATYYCAKYQDTIAPLYWGQGTQVTVSS | 0.77 nM
5 | AP1C3 Nb-huFc (Fc fusion) EVQLQASGGGFVQPGGSLRLSCAASGRTYRGYSMGWFRQAPGKEREFVSAISSWSDDWTAYADSVKGRFTISRDNSKNTVYLQMNSLRAEDTATYYCAWQYIDEIQYYWGQGTQVTVSS | 1.04 nM
6 | AP1A5 Nb-huFc (Fc fusion) EVQLQASGGGFVQPGGSLRLSCAASGSTASHYTMGWFRQAPGKEREFVSAISSGRDHAKQYADSVKGRFTISRDNSKNTVYLQMNSLRAEDTATYYCAYEEINATQKDTLYWGQGTQVTVSS | 11.9 nM

molecular target: T1, SARS-COV-2 spike, Wuhan (original); test: cell-based or functional assay; remark: another data set of the same source

Row | Binder | EC50, neutralization of spike pseudotyped virus
7 | KP1B5 Nb-huFc (Fc fusion) EVQLQASGGGFVQPGGSLRLSCAASGFTFDWSAMGWFRQAPGKEREFVSAISSSTSESTTYADSVKGRFTISRDNSKNTVYLQMNSLRAEDTATYYCATYYGGKTVEQDFYWGQGTQVTVSS | 896 nM
8 | BP1B1 Nb-huFc (Fc fusion) EVQLQASGGGFVQPGGSLRLSCAASGRTFSGYIMGWFRQAPGKEREFVSAISQGDSYASYYADSVKGRFTISRDNSKNTVYLQMNSLRAEDTATYYCALYDINTVPYYWGQGTQVTVSS | 4.13 nM
9 | KP2C6 Nb-huFc (Fc fusion) EVQLQASGGGFVQPGGSLRLSCAASGRTFTSFHMGWFRQAPGKEREFVSAISSGDDGTQYYADSVKGRFTISRDNSKNTVYLQMNSLRAEDTATYYCAAYTTTTVPQYWGQGTQVTVSS | 517 nM
10 | DP4F2 Nb-huFc (Fc fusion) EVQLQASGGGFVQPGGSLRLSCAASGTTYSERVMGWFRQAPGKEREFVSAISSGQSDQTYYYADSVKGRFTISRDNSKNTVYLQMNSLRAEDTATYYCAPFAGDANLPREWYWGQGTQVTVSSA | 65.8 nM
11 | BP2A3 Nb-huFc (Fc fusion) EVQLQASGGGFVQPGGSLRLSCAASGRTFSAYSMGWFRQAPGKEREFVSAISAGDGAASYYADSVKGRFTISRDNSKNTVYLQMNSLRAEDTATYYCAHYYTTSATLDYAYWGQGTQVTVSS | 58.5 nM
12 | KP1C9 Nb-huFc (Fc fusion) EVQLQASGGGFVQPGGSLRLSCAASGRTFDAYSMGWFRQAPGKEREFVSAISSWSDDWTAYADSVKGRFTISRDNSKNTVYLQMNSLRAEDTATYYCALQNTKEDRLYWGQGTQVTVSS | 2.89 nM
